B1: bispecific antibody 118 (AFF 6-3) (bispecific antibody)
chain 1: not shown
chain 2: QTVVTQEPSFSVSPGGTVTLTCGLSSGSVSTSHYPSWYQQTPGQAPRMLIYNTNTRSSGVPDRFSGSILGNKAALTITGAQADDESDYYCAIHVDRDIWVFGGGTKLTVLGGGGSGGGGSGGGGSQVQLVQSGGGVVQPGTSLRLSCAASGFIFSSSAMHWVRQAPGKGLEWVAVISYDGSNKYYVDSVKGRFTISRDNSKNTLYLQMNSLRAEDTAVYYCARSARLYASFDYWGQGALVTVSSGGGDKTHTCPPCPAPEAAGGPSVFLFPPKPKDTLMISRTPEVTCVVVDVSHEDPEVKFNWYVDGVEVHNAKTKPREEQYNSTYRVVSVLTVLHQDWLNGKEYKCKVSNKALPAPIEKTISKAKGQPREPQVCTLPPSREEMTKNQVSLSCAVKGFYPSDIAVEWESNGQPENNYKTTPPVLDSDGSFFLVSKLTVDKSRWQQGNVFSCSVMHEALHNHYTQKSLSLSPGK
notes: B7H3 bivalent CD3-B7H3 bispecific antibody, CD3 VH HRH-3, CD3 scFv at the N-terminus
B2: bispecific antibody 127 (AFF3-3) (bispecific antibody)
chain 1: not shown
chain 2: B1 chain 2
notes: B7H3 bivalent CD3-B7H3 bispecific antibody, CD3 VH HRH-3
B3: bispecific antibody 156 (AFF3-6) (bispecific antibody)
chain 1: not shown
chain 2: B1 chain 2
notes: B7H3 bivalent CD3-B7H3 bispecific antibody, CD3 VH HRH-6
B4: bispecific antibody 155 (AFF3-5) (bispecific antibody)
chain 1: not shown
chain 2: B1 chain 2
notes: B7H3 bivalent CD3-B7H3 bispecific antibody, CD3 VH HRH-5
B5: bispecific antibody 132 (AFF3-3SS) (bispecific antibody)
chain 1: not shown
chain 2: B1 chain 2

How the values were obtained:
[1] = molecular target: T1, human B7H3 on the cell surface (A498, CT26/hB7H3, U87, Detroit562 cells) (human, UniProt Q5ZPR3 29-534); test: cell-based or functional assay
T1 sequence: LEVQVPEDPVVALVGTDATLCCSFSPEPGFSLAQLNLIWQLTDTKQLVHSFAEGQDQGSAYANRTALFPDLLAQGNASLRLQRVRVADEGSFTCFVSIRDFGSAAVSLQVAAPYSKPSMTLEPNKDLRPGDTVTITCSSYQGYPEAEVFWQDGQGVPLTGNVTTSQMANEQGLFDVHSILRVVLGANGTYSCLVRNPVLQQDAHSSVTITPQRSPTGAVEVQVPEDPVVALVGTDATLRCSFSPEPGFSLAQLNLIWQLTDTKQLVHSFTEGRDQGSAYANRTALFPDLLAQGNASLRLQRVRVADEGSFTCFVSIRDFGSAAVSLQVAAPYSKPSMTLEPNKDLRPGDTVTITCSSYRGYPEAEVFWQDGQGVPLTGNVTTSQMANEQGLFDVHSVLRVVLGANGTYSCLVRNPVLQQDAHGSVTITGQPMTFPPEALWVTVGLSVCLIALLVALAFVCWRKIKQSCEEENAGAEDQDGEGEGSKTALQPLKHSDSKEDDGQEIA

[2] = molecular target: T2, Human CD3 antigen for detection (SinoBiological cat #CT038-H2508H); human CD3 epsilon-His and human CD3 … (human, UniProt P07766 23-126; P04234 22-105); test: Biacore T200 SPR, bispecific antibody captured, antigen as analyte, 1:1 Langmuir fit
T2 construct: Bought antigen
T2 sequence (P07766 other isoform, or with tags, fused parts or gaps H2508H H2508H, chain 1 of 2): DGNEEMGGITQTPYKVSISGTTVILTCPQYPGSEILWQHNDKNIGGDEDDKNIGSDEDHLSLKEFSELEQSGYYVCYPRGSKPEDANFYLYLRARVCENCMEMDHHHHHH
T2 sequence (P04234 other isoform, or with tags, fused parts or gaps H2508H H2508H, chain 2 of 2): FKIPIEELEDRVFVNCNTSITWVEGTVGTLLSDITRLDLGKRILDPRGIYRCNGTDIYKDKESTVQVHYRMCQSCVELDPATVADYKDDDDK
Procedure: (§1) The detection of antibody affinity to B7H3 and CD3 was performed in the form of capture antibody. BsAb was captured by CM5 biosensor chip (Cat. #BR-1005-30, GE) or Protein A (Cat. #29127556, GE) biosensor chip coupled with Anti-Human IgG Antibody (Cat. #BR-1008-39, Lot. #10260416, GE), and then each antigen flowed through the surface of the chip. The reaction signals were detected in real time with the Biacore T200 instrument to obtain the binding and dissociation curves. After the dissociation of each experimental cycle was completed, the chip was washed and regenerated with regeneration buffer Glycine1.5 (Cat #BR100354, GE) or 3 M MgCl₂ (from Human antibody capture kit, Cat. #BR100839, GE). The data were fitted with the (1:1) Langmuir model using GE Biacore T200 Evaluation version 3.0 software, and the affinity values were obtained.

[3] = molecular target: T3, Monkey CD3 antigen for detection (Acro biosystem cat #CDD-C52W4); monkey CD3 epsilon-His and monkey CD3 … (monkey (cyno), UniProt Q95LI5 22-117; Q95LI8 22-105); test: as above
T3 construct: Bought antigen
T3 sequence (Q95LI5 other isoform, or with tags, fused parts or gaps mutant, chain 1 of 2): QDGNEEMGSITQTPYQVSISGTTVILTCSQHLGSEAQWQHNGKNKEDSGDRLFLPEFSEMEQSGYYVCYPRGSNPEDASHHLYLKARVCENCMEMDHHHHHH
T3 sequence (Q95LI8 other isoform, or with tags, fused parts or gaps mutant, chain 2 of 2): as the sequence (P04234 other isoform, or with tags, fused parts or gaps H2508H H2508H, chain 2 of 2) above, with I5V, N15K, I20V, S32T, D33N, I34N, T64A, S74N, V83L counted along it
Procedure: as §1

[4] = molecular target: T4, Human B7H3 antigen for detection (SinoBiological cat #11188-H08H) (human, UniProt Q5ZPR3 29-461); test: as above
T4 construct: Bought antigen
T4 sequence: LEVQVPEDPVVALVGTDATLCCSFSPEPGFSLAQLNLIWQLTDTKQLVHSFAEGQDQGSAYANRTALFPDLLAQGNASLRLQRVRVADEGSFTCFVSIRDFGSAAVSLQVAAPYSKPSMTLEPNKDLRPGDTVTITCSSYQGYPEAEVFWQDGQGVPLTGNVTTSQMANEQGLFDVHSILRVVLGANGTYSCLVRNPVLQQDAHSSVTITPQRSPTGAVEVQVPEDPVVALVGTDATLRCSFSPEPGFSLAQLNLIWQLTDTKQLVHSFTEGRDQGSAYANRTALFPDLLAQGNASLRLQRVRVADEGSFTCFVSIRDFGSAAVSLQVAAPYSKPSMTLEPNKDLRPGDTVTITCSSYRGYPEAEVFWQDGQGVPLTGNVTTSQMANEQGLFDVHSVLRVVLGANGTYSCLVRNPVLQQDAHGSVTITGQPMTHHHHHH
Procedure: as §1

[5] = molecular target: T5, Monkey B7H3 antigen for detection (SinoBiological cat #90806-C08H) (monkey (cyno)); test: as above
T5 construct: Bought antigen; also called monkey (cyno) B7H3
T5 chain: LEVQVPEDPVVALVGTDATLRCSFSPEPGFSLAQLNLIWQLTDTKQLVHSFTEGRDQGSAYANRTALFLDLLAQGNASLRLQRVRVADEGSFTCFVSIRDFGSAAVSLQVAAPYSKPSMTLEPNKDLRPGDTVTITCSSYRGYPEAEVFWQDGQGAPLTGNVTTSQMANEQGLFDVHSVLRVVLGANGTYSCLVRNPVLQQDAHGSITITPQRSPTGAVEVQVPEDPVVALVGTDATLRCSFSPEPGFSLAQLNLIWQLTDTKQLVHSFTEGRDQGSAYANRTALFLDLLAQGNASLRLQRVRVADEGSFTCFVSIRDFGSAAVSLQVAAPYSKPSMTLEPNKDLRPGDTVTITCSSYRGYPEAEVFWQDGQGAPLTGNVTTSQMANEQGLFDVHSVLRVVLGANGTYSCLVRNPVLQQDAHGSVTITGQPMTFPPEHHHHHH
Procedure: as §1

[6] = molecular target: human CD3 on the cell surface (Jurkat recombinant cells; T cells of PBMC) (human, UniProt P07766 23-207; P04234 22-171); test: FACS on Jurkat recombinant cells expressing CD3, APC anti-human IgG Fc detection, geometric mean fluorescence
Chain of human CD3 on the cell surface (Jurkat recombinant cells; T cells of PBMC) (P07766 23-207, chain 1 of 2): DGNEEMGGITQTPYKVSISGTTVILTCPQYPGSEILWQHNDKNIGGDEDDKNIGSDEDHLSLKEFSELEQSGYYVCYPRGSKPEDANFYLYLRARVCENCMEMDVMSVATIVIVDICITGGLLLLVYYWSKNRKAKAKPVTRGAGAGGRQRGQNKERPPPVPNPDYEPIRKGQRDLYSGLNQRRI
Chain of human CD3 on the cell surface (Jurkat recombinant cells; T cells of PBMC) (P04234 22-171, chain 2 of 2): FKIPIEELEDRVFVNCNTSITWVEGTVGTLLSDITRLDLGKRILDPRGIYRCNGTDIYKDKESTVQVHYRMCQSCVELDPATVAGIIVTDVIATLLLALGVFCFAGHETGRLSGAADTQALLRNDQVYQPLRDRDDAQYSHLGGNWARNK
Procedure: (§2) The ability of bispecific antibodies to bind to cell surface antigens was detected by FACS method.
(§3) FACS buffer (98% PBS, 2% FBS) was added into a 96-well U-shaped bottom plate (corning, 3795) to resuspend the cells, the serially diluted antibodies were added, incubated at 4° C. for 1 hour, and the plate was washed with FACS buffer twice. Then APC anti-human IgG Fc Antibody (biolegend, Cat #409306, dilution at 1:50) was added into each well, incubated at 4° C. for 30 minutes, washed twice, the cells were resuspended in FACS buffer, and finally the fluorescence signal values were read by FACS CantoII (BD).

[7] = molecular target: T1, human B7H3 on the cell surface (A498, …); test: FACS on CT26/hB7H3 cells over-expressing human B7H3, APC anti-human IgG Fc detection, geometric mean fluorescence
Procedure: as §2, §3

[8] = molecular target: T2, Human CD3 antigen for detection …; test: Biacore T200 SPR, bispecific antibody captured, CD3 antigen as analyte, 1:1 Langmuir fit
Procedure: as §1

[9] = molecular target: T1, human B7H3 on the cell surface (A498, …); test: FACS on A498 cells expressing human B7H3, APC anti-human IgG Fc detection, geometric mean fluorescence
Procedure: as §2, §3

[10] = molecular target: T2, Human CD3 antigen for detection …; test: Biacore T200 SPR, bispecific antibody captured, CD3 antigen as analyte
Procedure: as §1

Binder	Emax (%), PBMC-mediated killing of A498 cells (B7H3 high) [1] [%]	Emax (%), PBMC-mediated killing of Detroit562 cells (B7H3 low) [1] [%]	Emax (%), PBMC-mediated killing of U87 cells (B7H3 intermediate) [1] [%]	IC50 (nM), PBMC-mediated killing of A498 cells (B7H3 high) [1] [nM]	IC50 (nM), PBMC-mediated killing of Detroit562 cells (B7H3 low) [1] [nM]	IC50 (nM), PBMC-mediated killing of U87 cells (B7H3 intermediate) [1] [nM]	Kd [2] [nM]	Kd [3] [nM]	Kd [4] [nM]	Kd [5] [nM]	EC50 (read off the curve) [6] [nM]	EC50 (read off the curve) [7] [nM]	Kd [8] [nM]	EC50 (read off the curve) [9] [nM]	binding result [10]
B1	65.9	39.2	67.2	0.34	14.5	2.4	66.1	1.59	5.33	7.31	~100	~1	–	–	–
B2	67.5	26.5	69.5	2.4	15.8	8.2	84.7	1.24	4.29	5.61	–	~2	97.2	~40	–
B3	–	–	–	–	–	–	–	–	–	–	–	–	–	–	no binding
B4	–	–	–	–	–	–	–	–	–	–	–	–	–	–	no binding
B5	66.4	15.2	67.6	2.94	15.7	11.9	85.3	0.813	5.35	6.9	~300	~2	–	~30	–

Reference: patent US20220242953A1 (JIANGSU HENGRUI MEDICINE, published 2022)
